# Test results from US20240391991A1, “MODULATION OF WNT SIGNALLING IN PULMONARY DISORDERS” (Surrozen Operating, Inc., priority 2021, published 2024).
# “Also recorded” adds a separate entry of the source.
# What was measured:
# human AT2 cell organoid [1] = experiment: Human AT2 organoid size (diameter, microscopy); type: cell-based; conditions: in the absence of RSPO
# [2] = tested on: acute bleomycin mouse model; experiment: Bleomycin-induced acute lung injury (fibrosis) mouse model; type: in vivo; conditions: agent alone
# Source text: The acute lung injury (single bleomycin treatment; FIG. 1) and chronic intermittent/low dose bleomycin mouse models (FIG. 2) were used to determine the therapeutic effects of Wnt antagonist and agonist (administered concurrently or sequentially or individually) in combination with or without anti-fibrotic drugs (e.g., pirfenidone and nintedanib) to assess effects on anti-fibrotic and improved respiratory functions (see, e.g., Degryse, A. et al. (2010) Am J Physiol Lung Cell Mol Physiol. 299:442-52). Improvement of fibrosis was observed upon treatment with a WNT agonist, SWAP5 (see, e.g., FIG. 7, FIG. 10). Specifically, bleomycin was administered intratracheally to the mice at day 0, and animals were treated twice weekly with an agonist approach—combination of SWAP5 (FZD1,2,5,7,8 multi-FZD-specific SWAP) and RSPO2 (combo)—for two weeks starting at day 7 until termination at day 21. […] Improvement of fibrosis was also observed upon treatment with a Wnt agonist or the Wnt signaling enhancer RSPO2 alone (FIG. 10).
# [3] = tested on: mouse AT2 organoid cultures; experiment: Mouse AT2 cell organoid expansion, CellTiter-Glo assay; type: cell-based; conditions: SWAP in combination with RSPO2; C59 present; FIG. 9
# Protocol: (§1) In all of the AT2 cell organoid experiments, the Wnt signaling inhibitor, C59, was used to prevent endogenous secretion of Wnt ligands. […] AT2 cell organoid growth was assessed with the CellTiter Glo assay.
# human AT2 cell organoid [4] = experiment: Human AT2 cell organoid growth, CellTiter Glo assay; type: cell-based
# Protocol: For ex vivo studies, 3D organoid cultures (see, e.g., Zacharias, W. et al. (2018) Nature 555:251-257 and Barkauskas et al. (2017) Development 144:986-997) were constructed by combining primary human lung fibroblasts from healthy, pulmonary fibrosis, or COPD patients with alveolar epithelial cells (AT2 and AEP cells) from patients. Organoids were cultured in SAGM medium with growth factor free Matrigel. The Wnt antagonist and agonist were added in a sequential or concurrent manner to determine the effect on the fibroblast/myofibroblast proliferation, matrix production, alveolar epithelial cell proliferation and AT1/AT2 cell fate trans-differentiation. Alveolar organoids can also be cultured directly from human distal lung cells including purified AT2 cells (Kobayashi et al., (2020) supra).
# as §1
molecule,measurement,setting,value
"SWAP3: FZD5,8-specific Wnt agonist (FZD5,8 and LRP6); heavy/light chains SEQ ID NO: 7 and 8 (antibody) heavy: EVQLVESGGGLVQPGGSLRLSCAASGFTFTSYYISWVRQAPGKGLEWVAEISPYSGSTYYADSVKGRFTISADTSKNTAYLQMNSLRAEDTAVYYCALRARPPIRLHPRGSVMDYWGQGTLVTVSSGGGGSGGGGSGGGGSEVQLVESGGGLVQPGGSLRLSCAASGFNISYSYIHWVRQAPGKGLEWVASIYSSSGSTSYADSVKGRFTISADTSKNTAYLQMNSLRAEDTAVYYCARGAIDYWGQGTLVTVSSASTKGPSVFPLAPSSKSTSGGTAALGCLVKDYFPEPVTVSWNSGALTSGVHTFPAVLQSSGLYSLSSVVTVPSSSLGTQTYICNVNHKPSNTKVDKKVEPKSCDKTHTCPPCPAPEAAGGPSVFLFPPKPKDTLMISRTPEVTCVVVDVSHEDPEVKFNWYVDGVEVHNAKTKPREEQYNSTYRVVSVLTVLHQDWLNGKEYKCKVSNKALGAPIEKTISKAKGQPREPQVYTLPPSREEMTKNQVSLTCLVKGFYPSDIAVEWESNGQPENNYKTTPPVLDSDGSFFLYSKLTVDKSRWQQGNVFSCSVMHEALHNHYTQKSLSLSPGK light: DIQMTQSPSSLSASVGDRVTITCRASQDVSTAVAWYQQKPGKAPKLLIYSASFLYSGVPSRFSGSGSGTDFTLTISSLQPEDFATYYCQQSYTTPPTFGQGTKVEIKGGGGSGGGGSGGGGSDIQMTQSPSSLSASVGDRVTITCRASQSVSSAVAWYQQKPGKAPKLLIYSASSLYSGVPSRFSGSRSGTDFTLTISSLQPEDFATYYCQQWYSSGHVLITFGQGTKVEIKRTVAAPSVFIFPPSDEQLKSGTASVVCLLNNFYPREAKVQWKVDNALQSGNSQESVTEQDSKDSTYSLSSTLTLSKADYEKHKVYACEVTHQGLSSPVTKSFNRGEC",human AT2 cell organoid growth as organoid size (diameter),"human AT2 cell organoid [1]; C59 present, FIG. 6",expand AT2 organoids
same,numbers of organoids and organoid size by microscopy,human AT2 cell organoid [1]; FIG. 8,increased numbers of organoids and organoid size
same,percentage of lung area affected by fibrosis,"[2]; dosed four times between week 1 and week 3, vs anti-GFP, FIGS. 10-11","reduced the fibrosis score, the percentage of lung affected, immune cell infiltration, and cytokine levels in the acute bleomycin mouse model in a dose-dependent manner; also recorded: reduce the area of the lung that is fibrotic"
same,fibrosis score (Modified Ashcroft),"[2]; dosed four times between week 1 and week 3, vs anti-GFP, FIGS. 10-12","reduced the fibrosis score, the percentage of lung affected, immune cell infiltration, and cytokine levels in the acute bleomycin mouse model in a dose-dependent manner; also recorded: lower the severity of fibrosis"
same,percent of ACTA2 in the lung,[2]; FIG. 11D,reduction of fibrosis
same,immune cell infiltration / inflammation (H&E based pathology scores),[2]; FIG. 11E,"reduced the fibrosis score, the percentage of lung affected, immune cell infiltration, and cytokine levels in the acute bleomycin mouse model in a dose-dependent manner; also recorded: reduction in inflammation"
same,IL6 in lung tissue (Meso Scale Discovery),[2]; FIG. 11F,reduction in cytokines
same,IL1B in lung tissue (Meso Scale Discovery),[2]; FIG. 11G,reduction in cytokines
same,GRO/CXCL1 in lung tissue (Meso Scale Discovery),[2]; FIG. 11H,reduction in cytokines
same,cytokine levels,"[2]; lung tissue, FIG. 11","reduced the fibrosis score, the percentage of lung affected, immune cell infiltration, and cytokine levels in the acute bleomycin mouse model in a dose-dependent manner"
same,expansion of mouse AT2 organoid cultures (CellTiter-Glo),[3],led to the expansion of mouse AT2 organoid cultures
same,effectiveness on human AT2 organoid expansion versus Chir99021,"human AT2 cell organoid [4]; 10 nM concentration, in the absence of RSPO, FIG. 8","more effective than the small molecule Wnt pathway activator, Chir99021"
same,human AT2 organoid culture outgrowth/viability (CellTiter Glo),"human AT2 cell organoid [4]; SWAP alone, in the absence of RSPO, C59 present, FIG. 8",induced human AT2 organoid culture outgrowth/viability as assessed by the CellTiter Glo assay in a concentration-dependent manner; also recorded: induce human AT2 cell organoid expansion alone (in the absence of RSPO) in a dose-dependent manner
same,self-renewal and expansion of human AT2 cells,human AT2 cell organoid [4]; summary of organoid results,promotes the self-renewal and expansion of human AT2 cells
